Experiments:
[1] = biological target: T1, human MSLN-R2-his protein (human, UniProt Q13421 391-486); experiment: ELISA; antibody 1 nM
T1 construct: also called hMSLN-R2-his; not shown: His tag

[2] = biological target: T2, human MSLN-FL-his protein (human, UniProt Q13421 296-580); experiment: ELISA; antibody 1 nM
T2 construct: also called hMSLN-FL-his; human MSLN full-length protein; not shown: His tag

[3] = biological target: T3, human MSLN-R1-his protein (human, UniProt Q13421 296-390); experiment: ELISA; antibody 1 nM
T3 construct: also called hMSLN-R1-his; human MSLN-R1 protein; not shown: His tag
T3 chain: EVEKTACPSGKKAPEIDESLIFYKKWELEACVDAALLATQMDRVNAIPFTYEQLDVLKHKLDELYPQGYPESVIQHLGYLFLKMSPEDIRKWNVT

[4] = biological target: T4, human MSLN-R3-his protein (human, UniProt Q13421 487-598); experiment: ELISA; antibody 1 nM
T4 construct: also called hMSLN-R3-his; not shown: His tag
T4 sequence (Q13421 495-606): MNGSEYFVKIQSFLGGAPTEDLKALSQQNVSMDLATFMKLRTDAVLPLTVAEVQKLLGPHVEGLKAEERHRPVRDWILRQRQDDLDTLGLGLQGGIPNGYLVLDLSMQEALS

[5] = biological target: T4, human MSLN-R3-his protein; experiment: ELISA; antibody 0.1 nM
[6] = biological target: T5, human MSLN protein, endogenously expressed on Hela and OVCAR3 cells (human, UniProt Q13421 296-598); experiment: FACS on OVCAR3 cells; antibody 0.16 nM
T5 construct: whole, on cells; also called mesothelin
T5 sequence (Q13421 other isoform, or with tags, fused parts or gaps): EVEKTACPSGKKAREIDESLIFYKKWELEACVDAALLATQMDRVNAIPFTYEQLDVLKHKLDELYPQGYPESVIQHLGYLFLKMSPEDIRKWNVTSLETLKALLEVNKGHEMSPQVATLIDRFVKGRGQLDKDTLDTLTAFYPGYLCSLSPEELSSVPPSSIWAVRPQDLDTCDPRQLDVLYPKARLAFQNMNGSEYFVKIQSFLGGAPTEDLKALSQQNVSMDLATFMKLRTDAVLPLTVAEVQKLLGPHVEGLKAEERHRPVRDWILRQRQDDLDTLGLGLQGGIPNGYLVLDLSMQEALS

[7] = biological target: T6, human MSLN-FL-his protein (human, UniProt Q13421 296-580); experiment: competitive ELISA; row F2.58.8
T6 construct: made in HEK293E cells, purified on nickel column; also called hMSLN-FL-his; human MSLN full-length protein; not shown: His tag
T6 sequence (Q13421 other isoform, or with tags, fused parts or gaps): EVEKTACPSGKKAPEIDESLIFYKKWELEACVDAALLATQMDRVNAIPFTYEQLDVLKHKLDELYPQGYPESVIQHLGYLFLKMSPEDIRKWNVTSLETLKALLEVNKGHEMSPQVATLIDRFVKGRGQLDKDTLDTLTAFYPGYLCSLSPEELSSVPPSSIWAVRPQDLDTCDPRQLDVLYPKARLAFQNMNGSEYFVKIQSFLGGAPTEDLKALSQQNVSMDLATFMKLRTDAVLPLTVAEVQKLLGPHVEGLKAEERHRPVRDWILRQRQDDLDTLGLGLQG

[8] = biological target: T4, human MSLN-R3-his protein; experiment: ELISA; antibody 0 nM (blank)

T1 sequence (Q13421 other isoform, or with tags, fused parts or gaps): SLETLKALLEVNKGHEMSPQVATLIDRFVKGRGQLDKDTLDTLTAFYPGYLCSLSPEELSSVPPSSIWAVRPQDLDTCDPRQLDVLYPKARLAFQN

OD450 nm [1]: 0.05 | OD450 nm [2]: 1.74 | OD450 nm [3]: 0.05 | OD450 nm [4]: 0.05 | OD450 nm [5]: 0.05 | FACS fluorescence intensity [6]: 229 | competition rate [7]: 9% | OD450 nm [8]: 0.05
B1: Tab107 (YP3, hIgG1) (antibody, V domains shown)
VH: QEQLVESGGGLVQPGASLTLTCTASGIDFSRYYMCWVRQAPGKGLEGIACIYIGGSGSTYYASWAKGRFTISKASSTTVTLQMTSLTAADTATYFCARGTNLNYIFRLWGPGTLVTVSS
VL: DVVMTQTPSPVSAAVGGTVTIKCQASQSINNGLAWYQQKPGQPPRLLIYSASNLESGVPSRFKGSGSGTEFTLTISDLECDDAATYYCQCIWDGNSYVNAFGGGTEVVVRT
notes: Control antibody; VH and VL recombined into human IgG1 CH and CL expression vectors; also called YP3 human IgG1 antibody
